US10012655B2, “Method for quantitating total HMGB1 protein in biological samples” (INSTITUT PASTEUR, priority 2008, dated 2018)

Legend:
[1] = tested on: iDCs; experiment: Cytokine and chemokine production by DCs (MAP/Luminex); type: cell-based, human; details: iDCs 48 h with 1 or 10 μg/ml
Method: FIG. 3 (a)-(e). aNK-dependent maturation of HIV-1-infected iDCs is mediated by HMGB1 and involves RAGE. (a) Left panel: iDCs were cultured for 24 h either alone or with aNK cells, in the presence of blocking anti-HMGB1 antibodies (10 μg/ml) or glycyrrhizin (10 μg/ml). The maturation status of DCs was determined by flow cytometry with CD86 and HLA-DR—specific antibodies. Right panel: same experiment, but performed with HIV-1 infected iDCs. Data represent mean±sd of at least three independent experiments, and statistical comparisons were made with the non parametric Mann-Whitney test. * p<0.05. (b) iDC (10^6 cells/ml) were cultured for 48 h with increasing concentrations (1-10 μg/ml) of rh-HMGB1. Cells were then stained with anti-CD86, -HLA-DR, -CD80, -CD83, DC-LAMP and -CD40 antibodies and analyzed by flow cytometry. (c) Influence of rh-HMGB1 on cytokine and chemokine production (determined by MAP) by DCs. iDCs (10^6 cells/ml) were incubated for 48 h in medium or in presence of rh-HMGB1 (1 or 10 μg/ml). As a positive control, iDCs were stimulated with LPS (DC0). […] (e) iDC, DC0, uninfected or HIV-1-infected iDC cocultured for 24 h with aNK cells, were incubated with rh-HMGB1 (1 μg/ml) and subsequently stained with anti-RAGE antibodies and analyzed by flow cytometry. […]

[2] = tested on: HIV-2; experiment: HIV-2 replication in infected iDCs, p24 ELISA in culture supernatant; type: cell-based; details: HIV-2-infected iDC, day 3 of infection
Method: FIGS. 6 (a), (b) and (c). Exogenous rh-HMGB1 triggers HIV-1 and HIV-2 replication in iDC. (a) HIV-1-infected iDC were cultured alone or in the presence of aNK cells for 3 days. Rh-HMGB1 (1 μg/ml) was added in some cultures. HIV replication was measured by p24 quantification in culture supernatant (b) HIV1-infected iDC were cultured alone or in the presence of aNK cells for 3 days. Blocking anti-HMGB1 antibodies (10 μg/ml) or glycyrrhizin (10 μg/ml) were added at culture initiation. HIV replication was measured by p24 quantification in culture supernatant. The mean±sd of three independent experiments is shown. Statistical comparisons were made with the non parametric Mann-Whitney test. * p<0.05; (c) HIV-2-infected iDC were cultured alone or in the presence of aNK cells for 3 days. Rh-HMGB1 (1 μg/ml) was added in some cultures. HIV replication was measured by p24 quantification in culture supernatant. […]
2—NK-DC cocultures: cells were harvested, washed three times with RPMI containing 10% FCS and, when indicated, aNK cells were added at a NK:DC ratio of 1:5. […] NK-DC cocultures lasted 3 to 7 days before quantification of viral production in culture supernatants.
3—Quantification of HIV-2 viral production: the concentration of HIV-2 particles in the supernatants was determined with the p24 ELISA kit (Ingen, Belgium).

[3] = tested on: R5-HIV-1Ba-L; experiment: HIV-1 replication in infected iDCs, p24 ELISA in culture supernatant; type: cell-based; details: 1 μg/ml, 3 days
Method: FIGS. 6 (a), (b) and (c). Exogenous rh-HMGB1 triggers HIV-1 and HIV-2 replication in iDC. (a) HIV-1-infected iDC were cultured alone or in the presence of aNK cells for 3 days. Rh-HMGB1 (1 μg/ml) was added in some cultures. HIV replication was measured by p24 quantification in culture supernatant (b) HIV1-infected iDC were cultured alone or in the presence of aNK cells for 3 days. Blocking anti-HMGB1 antibodies (10 μg/ml) or glycyrrhizin (10 μg/ml) were added at culture initiation. HIV replication was measured by p24 quantification in culture supernatant. The mean±sd of three independent experiments is shown. Statistical comparisons were made with the non parametric Mann-Whitney test. * p<0.05; (c) HIV-2-infected iDC were cultured alone or in the presence of aNK cells for 3 days. Rh-HMGB1 (1 μg/ml) was added in some cultures. HIV replication was measured by p24 quantification in culture supernatant.
Virus stock preparation was prepared by amplification of R5-HIV-1Ba-L on MDM from healthy donors. Viral stock was then clarified by centrifugation prior to determination of HIV1 p24 concentration. iDCs were plated in 96-well culture plates at 200,000 cells/well and incubated for 3 hours at 37° C. in a 5% CO2 atmosphere with R5-HIV-1BAL at various concentrations (0.001 to 10 ng p24/ml). Cells were harvested, washed four times with media containing 10% FCS and, when indicated, rNK or aNK cells were added at a NK:DC ratio of 1:5, unless otherwise indicated. NK-DC cocultures lasted 24 h before analysis of the maturation stage of DCs and/or quantification of viral production. In some experiments (FIG. 6), HIV-1 infected iDCs were incubated alone or with aNK cells for 3 days, in the presence of rh-HMGB1 (1 μg/ml) (R&DSystems), and in some cultures in the presence of rabbit antiHMGB1 Abs (10 μg/ml) (Abcam, Cambridge, UK) or Glycyrrhizin (10 μg/ml).
The concentration of HIV-1 in the supernatant of infected cell cultures was determined by measuring the amount of p24 protein by ELISA (Ingen, Belgium). DNA from cells was extracted using the GIAamp DNA Blood Mini Kit (Qiagen, Basel, Switzerland) and quantified HIV-1 proviral load by RT-PCR as described previously54. The frequency of HIV-1-infected cells was determined by flow cytometry to detect intracellular p24 molecule. Cells were surface stained with antibodies specific for CD40 (BD Biosciences, San Jose, Calif.) to target DC and intracellular stained with p24-specific antibodies (Coulter). Stained cells were fixed in 1% PFA, immediately acquired on a FACScalibur (Becton Dickinson) and analyzed with FlowJo software. In some experiments infected DCs were imaged, after immunofluorescence, by laser scanning confocal microscopy.

B1: rh-HMGB1: recombinant human HMGB1 protein (R&D Systems) (protein, UniProt P09429 1-215, looked up)
High mobility group protein B1: MGKGDPKKPRGKMSSYAFFVQTCREEHKKKHPDASVNFSEFSKKCSERWKTMSAKEKGKFEDMAKADKARYEREMKTYIPPKGETKKKFKDPNAPKRPPSAFFLFCSEYRPKIKGEHPGLSIGDVAKKLGEMWNNTAADDKQPYEKKAAKLKEKYEKDIAAYRAKGKPDAAKKGVVKAEKSKKKKEEEEDEEDEEDEEEEEDEEDEDEEEDDDDE
For B1, the “release of the chemokines MCP1, MIP-1α, MIP-1β and IL-8” value [1] was “increased release”, the “HIV-2 viral replication (p24 in supernatant)” value [2] was “slight increase in viral replication” and the “p24 production in culture supernatants” value ([3]; HIV-1-infected iDC cocultured with aNK cells) was “significant stimulatory effect on p24 production”. For the same molecule, the “production of p24 in culture supernatants” value ([3]; HIV-1-infected iDC cultured alone) was “enhancing dramatically the production of p24”.
